The values that follow come from patent US9309278.

In this data set the target is T1, Ac-FQPKKS(Ac)G-NH2 (alkylated acetyl-lysine analog of peptide 1).
T1 chain: FQPKXG

B1: human sirtuin 2 (SIRT2) enzyme (protein)
chain: MAEPDPSHPLETQAGKVQEAQDSDSDSEGGAAGGEADMDFLRNLFSQTLSLGSQKERLLDELTLEGVARYMQSERCRRVICLVGAGISTSAGIPDFRSPSTGLYDNLEKYHLPYPEAIFEISYFKKHPEPFFALAKELYPGQFKPTICHYFMRLLKDKGLLLRCYTQNIDTLERIAGLEQEDLVEAHGTFYTSHCVSASCRHEYPLSWMKEKIFSEVTPKCEDCQSLVKPDIVFFGESLPARFFSCMQSDFLKVDLLLVMGTSLQVQPFASLISKAPLSTPRLLINKEKAGQSDPFLGMIMGLGGGMDFDSKKAYRDVAWLGECDQGCLALAELLGWKKELEDLVRREHASIDAQSGAGVPNPSTSASPKKSPPPAKDEARTTEREKPQ
With B1, the deacetylation rate (SIRT2 assay, C18 analytical HPLC) (fold of the rate on the native peptide) came out at 0.33 and the “enzymatic deacetylation (SIRT2 assay, HPLC peak of the deacetylated product)” value is “the sLys(Ac) residue in the alkylated peptide 1 was susceptible to enzymatic deacetylation, albeit to a lesser degree, compared to its native counterpart”.
